Among the data in US20230212305A1 (published 2023) are EC50 and Kd values, retold here.

Test [1] has as its target T1, cynomolgus ABCG2 (Macaca fascicularis) (UniProt Q5MB13 1-654).
T1 chain: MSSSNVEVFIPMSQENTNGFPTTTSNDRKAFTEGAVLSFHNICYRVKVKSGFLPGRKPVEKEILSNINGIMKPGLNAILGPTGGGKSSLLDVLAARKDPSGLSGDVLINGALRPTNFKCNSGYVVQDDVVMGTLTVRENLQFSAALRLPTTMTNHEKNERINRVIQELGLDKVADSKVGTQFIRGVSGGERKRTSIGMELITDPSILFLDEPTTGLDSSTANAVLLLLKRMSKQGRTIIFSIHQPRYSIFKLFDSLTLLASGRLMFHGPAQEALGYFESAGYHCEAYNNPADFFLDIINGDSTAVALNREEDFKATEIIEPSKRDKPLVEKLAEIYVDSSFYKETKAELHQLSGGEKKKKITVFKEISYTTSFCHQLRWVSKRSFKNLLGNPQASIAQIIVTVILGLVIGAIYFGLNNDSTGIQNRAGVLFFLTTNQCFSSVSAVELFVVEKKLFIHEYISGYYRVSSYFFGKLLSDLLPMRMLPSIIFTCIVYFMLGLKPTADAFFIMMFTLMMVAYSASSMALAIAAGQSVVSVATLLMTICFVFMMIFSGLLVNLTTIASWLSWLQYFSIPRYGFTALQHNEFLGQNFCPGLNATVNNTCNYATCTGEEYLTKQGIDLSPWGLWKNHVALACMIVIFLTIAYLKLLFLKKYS
The test can be described thus: cell binding.

Test [2] deals with T2, human ABCG2 (UniProt Q9UNQ0 1-655).
T2 chain: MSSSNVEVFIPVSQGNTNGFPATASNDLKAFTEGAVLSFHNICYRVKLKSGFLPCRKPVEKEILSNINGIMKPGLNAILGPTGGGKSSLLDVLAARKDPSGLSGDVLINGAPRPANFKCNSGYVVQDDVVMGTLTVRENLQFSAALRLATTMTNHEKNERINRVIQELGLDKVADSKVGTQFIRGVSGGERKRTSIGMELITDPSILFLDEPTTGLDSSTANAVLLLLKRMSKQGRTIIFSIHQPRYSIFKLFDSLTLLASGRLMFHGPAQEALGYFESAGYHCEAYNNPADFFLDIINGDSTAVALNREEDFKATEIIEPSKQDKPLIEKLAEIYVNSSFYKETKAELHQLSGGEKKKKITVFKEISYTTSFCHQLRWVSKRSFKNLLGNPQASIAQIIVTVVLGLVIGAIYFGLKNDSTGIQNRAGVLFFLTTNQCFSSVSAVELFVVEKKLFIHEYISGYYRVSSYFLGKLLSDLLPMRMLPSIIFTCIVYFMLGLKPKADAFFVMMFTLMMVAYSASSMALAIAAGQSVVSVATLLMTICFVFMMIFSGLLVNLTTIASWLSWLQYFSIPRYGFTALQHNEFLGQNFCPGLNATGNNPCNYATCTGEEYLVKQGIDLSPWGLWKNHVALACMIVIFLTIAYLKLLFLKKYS
The test can be described thus: cell binding.

For test [3], the target named is T1, cynomolgus ABCG2 (Macaca fascicularis). In words: FACS binding to 293T cells. On the technique in general: A flow cytometer gives signals particle by particle.
In test [4] the target is T2, human ABCG2. In words: FACS binding to 293T cells.
The target in test [5] is G2_709. The test can be described thus: FACS binding to 293T cells.
Test [6] addresses G2_336. In words: FACS binding to 293T cells.
Test [7] has as its target G2_377. In words: FACS binding to 293T cells.
The target in test [8] is G2_656. The test can be described thus: FACS binding to 293T cells.
Test [9] deals with G2_418. The test can be described thus: FACS binding to 293T cells.
Test [10] has as its target G2_639. In words: FACS binding to 293T cells.
Test [11] has as its target G2_745. The test can be described thus: FACS binding to 293T cells.
Test [12] deals with G2_620. In words: FACS binding, 293T-G2OX cells.
In test [13] the target is h5D3. In words: FACS binding, 293T-G2OX cells.
Test [14] deals with h5D3. In words: FACS cell binding.
The target of test [15] is KNJY-G2-333H. In words: FACS cell binding.
In test [16] the target is h5D3. In words: FACS cell binding. This is another data set of the same source.

B1: G2.643 mouse (antibody, V domains shown)
VH: VNLVESGPELVKPGTSVKISCKASGYRFTSYYVHWVKQRPGQGLEWIGWIFPGSDNTKYNEKFKGKATLTADTSSSTAYMQLSSLTSEDSAVYFCASIYYGYDGTLYFDYWGQGTSVTVSS
VL: DIVMTQSHTFMSTSVGDRVSVTCKASQNVGNNVAWYQQKPGQSPNALIYSASYRYSGVPDRFTGSGSGTDFTLTISNVQSEDLAEYFCQQYDRYPLTFGGGTKLEIK
For the molecule B1, the EC50 stood at 65 nM in test [1] and 27 nM in [2]. Besides, the Kd in test [3] was determined as 17.1 nM; in [4] it was 5.9 nM.

B2: hG2 (other)
chain: MSSSNVEVFIPVSQGNTNGFPATASNDLKAFTEGAVLSFHNICYRVKLKSGFLPCRKPVEKEILSNINGIMKPGLNAILGPTGGGKSSLLDVLAARKDPSGLSGDVLINGAPRPANFKCNSGYVVQDDVVMGTLTVRENLQFSAALRLATTMTNHEKNERINRVIQELGLDKVADSKVGTQFIRGVSGGERKRTSIGMELITDPSILFLDEPTTGLDSSTANAVLLLLKRMSKQGRTIIFSIHQPRYSIFKLFDSLTLLASGRLMFHGPAQEALGYFESAGYHCEAYNNPADFFLDIINGDSTAVALNREEDFKATEIIEPSKQDKPLIEKLAEIYVNSSFYKETKAELHQLSGGEKKKKITVFKEISYTTSFCHQLRWVSKRSFKNLLGNPQASIAQIIVTVVLGLVIGAIYFGLKNDSTGIQNRAGVLFFLTTNQCFSSVSAVELFVVEKKLFIHEYISGYYRVSSYFLGKLLSDLLPMRMLPSIIFTCIVYFMLGLKPKADAFFVMMFTLMMVAYSASSMALAIAAGQSVVSVATLLMTICFVFMMIFSGLLVNLTTIASWLSWLQYFSIPRYGFTALQHNEFLGQNFCPGLNATGNNPCNYATCTGEEYLVKQGIDLSPWGLWKNHVALACMIVIFLTIAYLKLLFLKKYS
B2: the Kd in test [5] was 20.6 nM; in test [6], 28.2 nM; in test [7], 16.7 nM; in test [8], 36.8 nM; in test [9] it was 59 nM; in test [10], 46.8 nM. Besides, the Kd came out at 23.3 nM in test [11], 15.8 nM in test [12] and 2.99 nM in [13].

B3: ABCG2 (other)
chain: MSSSNVEVFIPVSQGNTNGFPATASNDLKAFTEGAVLSFHNICYRVKLKSGFLPCRKPVEKEILSNINGIMKPGLNAILGPTGGGKSSLLDVLAARKDPSGLSGDVLINGAPRPANFKCNSGYVVQDDVVMGTLTVRENLQFSAALRLATTMTNHEKNERINRVIQELGLDKVADSKVGTQFIRGVSGGERKRTSIGMELITDPSILFLDEPTTGLDSSTANAVLLLLKRMSKQGRTIIFSIHQPRYSIFKLFDSLTLLASGRLMFHGPAQEALGYFESAGYHCEAYNNPADFFLDIINGDSTAVALNREEDFKATEIIEPSKQDKPLIEKLAEIYVNSSFYKETKAELHQLSGGEKKKKITVFKEISYTTSFCHQLRWVSKRSFKNLLGNPQASIAQIIVTVVLGLVIGAIYFGLKNDSTGIQNRAGVLFFLTTNQCFSSVSAVELFVVEKKLFIHEYISGYYRVSSYFLGKLLSDLLPMRMLPSIIFTCIVYFMLGLKPKADAFFVMMFTLMMVAYSASSMALAIAAGQSVVSVATLLMTICFVFMMIFSGLLVNLTTIASWLSWLQYFSIPRYGFTALQHNEFLGQNFCPGLNATGNNPCNYATCTGEEYLVKQGIDLSPWGLWKNHVALACMIVIFLTIAYLKLLFLKKYS
With B3, the Kd in [14] amounted to 3.12 nM; in test [15], 7.5 nM; in test [16] it was 81 nM.

The term EC50 denotes the concentration needed to bring the measured effect to its halfway point. Read a high EC50 as lower potency in that assay. As usually defined, the Kd is the free concentration of one partner at which half of the binding sites on the other are occupied at equilibrium, for simple one-to-one binding. Higher therefore signals weaker binding.
